Measured values published in paper PMC8406324.

Target: HTNV Gn as incorporated in virus-like particles (Hantaan virus (HTNV))
Test: cryo-EM structure

For “HTNV Gn as incorporated in virus-like particles (natural protein)”, which stoichiometry N is on record?
The stoichiometry N was 4.
